Measured values as given in patent publication US20190284293A1, “COMBINATION THERAPY WITH ANTI-CD73 ANTIBODIES” (BRISTOL-MYERS SQUIBB COMPANY, priority 2016, published 2019).

Experiments:
Assay in all cases: SPR, antibody binding to anti-his Fab captured FcgR-his (% Rmax)
Conditions in all cases: 1 μM antibody
CD16B-NA2 (FcgRIIIb-NA2) = CD16B-NA2 (FcgRIIIb-NA2) (Homo sapiens, UniProt O75015)
Experimental: (§1) The binding of antibodies to Fc gamma receptors (FcγRs or FcgRs) was studied using biosensor technologies including Biacore surface plasmon resonance (SPR) and Fortebio Biolayer Interferometry (BLI). SPR studies were performed on a Biacore T100 instrument (GE Healthcare) at 25° C. The Fab fragment from a murine anti-6×His antibody was immobilized on a CM5 sensor chip using EDC/NHS to a density of −3000 RU. Various his-tagged FcgRs (7 ug/ml) were captured via the C-terminal his-tag using a contact time of 30 s at 10 ul/min, and the binding of 1.0 μM antibody was evaluated in a running buffer of 10 mM NaPO4, 130 mM NaCl, 0.05% p20 (PBS-T) pH 7.1. FcgRs used for these experiments included CD64 (FcgRI), CD32a-H131 (FcgRIIa-H131), CD32a-R131 (FcgRIIa-R131), CD32b (FcgRIIb), CD16a-V158 (FcgRIIIa-V158), CD16b-NA1 (FcgRIIIb-NA1), and CD16B-NA2 (FcgRIIIb-NA2). BLI experiments were performed on a Fortebio Octet RED instrument (Pall, Fortebio) at 25° C. in 10 mM NaPO4, 130 mM NaCl, 0.05% p20 (PBS-T) pH 7.1. Antibodies were captured out of undiluted expression supernatants on protein A coated sensors, followed by the binding of 1 μM hCD32a-H131, hCD32a-R131, hCD32b, hCD16a-V158, or 0.1 μM hCD64 analytes.

[1] = molecular target: CD16a-V158 (FcgRIIIa-V158) (Homo sapiens, UniProt P08637, F176V)
CD16a-V158 (FcgRIIIa-V158), sequence (P08637 17-208 F176V limits assumed): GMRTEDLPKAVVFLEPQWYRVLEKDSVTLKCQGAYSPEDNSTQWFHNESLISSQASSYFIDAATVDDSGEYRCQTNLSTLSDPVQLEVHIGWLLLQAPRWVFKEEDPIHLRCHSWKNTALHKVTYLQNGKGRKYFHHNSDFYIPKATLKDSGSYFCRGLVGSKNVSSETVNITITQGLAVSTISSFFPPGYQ
Experimental: as §1

[2] = molecular target: T1, CD32a-R131 (FcgRIIa-R131) (Homo sapiens, UniProt P12318, H167R)
T1 sequence (P12318 34-217 H167R limits assumed): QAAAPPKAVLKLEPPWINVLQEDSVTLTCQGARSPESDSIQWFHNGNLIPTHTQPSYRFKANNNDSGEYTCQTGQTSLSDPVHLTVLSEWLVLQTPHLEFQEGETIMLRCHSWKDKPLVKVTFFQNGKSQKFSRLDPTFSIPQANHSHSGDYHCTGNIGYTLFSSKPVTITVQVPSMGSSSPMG
Experimental: as §1

CD32b (FcgRIIb) = molecular target: T2, CD32b (FcgRIIb) (Homo sapiens, UniProt P31994)
T2 sequence (P31994 43-310): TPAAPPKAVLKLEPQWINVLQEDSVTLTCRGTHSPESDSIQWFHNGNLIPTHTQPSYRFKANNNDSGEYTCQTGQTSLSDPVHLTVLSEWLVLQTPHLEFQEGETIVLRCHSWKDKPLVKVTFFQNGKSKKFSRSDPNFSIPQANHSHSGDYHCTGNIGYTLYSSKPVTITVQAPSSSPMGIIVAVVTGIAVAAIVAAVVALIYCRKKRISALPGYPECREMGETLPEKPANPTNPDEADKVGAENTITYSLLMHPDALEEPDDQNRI
Experimental: as §1

CD64 (FcgRI) = CD64 (FcgRI) (Homo sapiens, UniProt P12314)
CD64 (FcgRI), sequence (P12314 16-374): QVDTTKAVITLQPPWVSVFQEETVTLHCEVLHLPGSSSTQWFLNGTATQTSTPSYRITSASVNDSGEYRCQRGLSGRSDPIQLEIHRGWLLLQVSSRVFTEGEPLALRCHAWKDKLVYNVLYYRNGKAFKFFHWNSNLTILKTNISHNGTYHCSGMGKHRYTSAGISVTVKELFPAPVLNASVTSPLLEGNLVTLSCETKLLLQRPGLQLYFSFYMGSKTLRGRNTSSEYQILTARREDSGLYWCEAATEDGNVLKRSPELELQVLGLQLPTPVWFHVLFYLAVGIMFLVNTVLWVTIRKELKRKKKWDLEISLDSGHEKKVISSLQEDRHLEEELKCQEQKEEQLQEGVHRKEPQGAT
Experimental: as §1

[3] = molecular target: T3, CD32a-H131 (FcgRIIa-H131) (Homo sapiens, UniProt P12318)
T3 sequence (P12318 34-217 limits assumed): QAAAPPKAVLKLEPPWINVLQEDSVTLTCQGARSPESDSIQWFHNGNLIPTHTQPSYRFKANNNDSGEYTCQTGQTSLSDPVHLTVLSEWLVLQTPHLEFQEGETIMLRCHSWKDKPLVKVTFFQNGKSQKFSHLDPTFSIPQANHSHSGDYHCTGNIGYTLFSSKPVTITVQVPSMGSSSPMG
Experimental: as §1

CD16B-NA2 (FcgRIIIb-NA2), sequence (O75015 17-200 limits assumed): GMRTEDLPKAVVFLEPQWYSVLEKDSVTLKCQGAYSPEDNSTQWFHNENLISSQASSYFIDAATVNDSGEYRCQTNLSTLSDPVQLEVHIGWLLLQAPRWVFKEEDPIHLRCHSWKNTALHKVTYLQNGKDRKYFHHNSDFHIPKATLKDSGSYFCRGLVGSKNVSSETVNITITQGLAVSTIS

| % Rmax hCD16B-NA2 (CD16B-NA2 (FcgRIIIb-NA2)) [%] | % Rmax hCD16a-V158 [1] [%] | % Rmax hCD32a-R131 [2] [%] | % Rmax hCD32b (CD32b (FcgRIIb)) [%] | % Rmax hCD64 (CD64 (FcgRI)) [%] | % Rmax hCD32a-H131 [3] [%] | Molecule |
| --- | --- | --- | --- | --- | --- | --- |
| 0 | 1 | 5 | 1 | 1 |  | mAb10-IgG2.5 (protein, left off: another chain or arm of the molecule) constant: ASTKGPSVFPLAPSSRSTSESTAALGCLVKDYFPEPVTVSWNSGALTSGVHTFPAVLQSSGLYSLSSVVTVPSSNFGTQTYTCNVDHKPSNTKVDKTVERKCCVECPPCPAPPVAGPSVFLFPPKPKDTLMISRTPEVTCVVVDVSHEDPEVQFNWYVDGVEVHNAKTKPREEQFNSTFRVVSVLTVVHQDWLNGKEYKCKVSNKGLPAPIEKTISKTKGQPREPQVYTLPPSREEMTKNQVSLTCLVKGFYPSDIAVEWESNGQPENNYKTTPPMLDSDGSFFLYSKLTVDKSRWQQGNVFSCSVMHEALHNHYTQKSLSLSPGK |
| 0 | 1 | 6 | 1 | 1 |  | mAb12-IgG2.5 (protein, left off: another chain or arm of the molecule) constant: ASTKGPSVFPLAPSSRSTSESTAALGCLVKDYFPEPVTVSWNSGALTSGVHTFPAVLQSSGLYSLSSVVTVPSSNFGTQTYTCNVDHKPSNTKVDKTVERKCCVECPPCPAPPVAGPSVFLFPPKPKDTLMISRTPEVTCVVVDVSHEDPEVQFNWYVDGVEVHNAKTKPREEQFNSTFRVVSVLTVVHQDWLNGKEYKCKVSNKGLPAPIEKTISKTKGQPREPQVYTLPPSREEMTKNQVSLTCLVKGFYPSDIAVEWESNGQPENNYKTTPPMLDSDGSFFLYSKLTVDKSRWQQGNVFSCSVMHEALHNHYTQKSLSLSPGK |

The remaining lines, values behind:

| Molecule | % Rmax hCD16B-NA2 (CD16B-NA2 (FcgRIIIb-NA2)) [%] | % Rmax hCD16a-V158 [1] [%] | % Rmax hCD32a-R131 [2] [%] | % Rmax hCD32b (CD32b (FcgRIIb)) [%] | % Rmax hCD64 (CD64 (FcgRI)) [%] | % Rmax hCD32a-H131 [3] [%] |
| --- | --- | --- | --- | --- | --- | --- |
| mAb8-IgG2.3G1-AY-V27 (protein, left off: another chain or arm of the molecule) constant: ASTKGPSVFPLAPCSRSTSESTAALGCLVKDYFPEPVTVSWNSGALTSGVHTFPAVLQSSGLYSLSSVVTVPSSNFGTQTYTCNVDHKPSNTKVDKTVERKSCVECPPCPAPELLGGPSVFLFPPKPKDTLMISRTPEVTCVVVDVEHEDPEVKFNWYVDGVEVHNAKTKPREEQYNSTYRVVSVLTVLHQDWLNGKEYKCKVSNKALPAPIEKTISKAKGQPREPQVYTLPPSREEMTKNQVSLTCLVKGFYPSDIAVEWESNGQPENNYKTTPPVLDSDGSFFLYSKLTVDKSRWQQGNVFSCSVMHEALHNHYTQKSLSLSPGK | 7 |  | 80 | 67 | 78 | 67 |
| mAb10-IgG2.3G1-AY-V27 (protein, left off: another chain or arm of the molecule) constant: ASTKGPSVFPLAPCSRSTSESTAALGCLVKDYFPEPVTVSWNSGALTSGVHTFPAVLQSSGLYSLSSVVTVPSSNFGTQTYTCNVDHKPSNTKVDKTVERKSCVECPPCPAPELLGGPSVFLFPPKPKDTLMISRTPEVTCVVVDVEHEDPEVKFNWYVDGVEVHNAKTKPREEQYNSTYRVVSVLTVLHQDWLNGKEYKCKVSNKALPAPIEKTISKAKGQPREPQVYTLPPSREEMTKNQVSLTCLVKGFYPSDIAVEWESNGQPENNYKTTPPVLDSDGSFFLYSKLTVDKSRWQQGNVFSCSVMHEALHNHYTQKSLSLSPGK | 3 | 12 | 57 | 40 | 69 |  |
